Targets include nsp8 (SARS-CoV-2, UniProt P0DTD1 3943-4140); nsp7;nsp8ΔN (SARS-CoV-2;SARS-CoV-2, UniProt P0DTD1;P0DTD1 3860-3942;4019-4140, |); nsp8ΔN (SARS-CoV-2, UniProt P0DTD1 4019-4140); nsp7;nsp8 (SARS-CoV-2;SARS-CoV-2, UniProt P0DTD1;P0DTD1 3860-3942;3943-4140, |); nsp7 (SARS-CoV-2, UniProt P0DTD1 3860-3942).
Holding throughout (assay): EMSA
(In EMSA bound probe runs differently from free probe, usually more slowly.)

With GCUUUGAUUUCG (ssRNA) [12-mer ssRNA (FAM, EMSA)], the binding result with nsp8 is listed as “binds”; with nsp7;nsp8ΔN, “no binding”; with nsp8ΔN it was “no binding”; in the data set with nsp7;nsp8 it was “binds”; with nsp7 it was “no binding”.

(Values after publication PMC7980517.)
